Reference: publication PMC2951370, “Concerted Action of Two Formins in Gliding Motility and Host Cell Invasion by Toxoplasma gondii” (PLoS Pathogens, 2010)

Assays:
[1] = target: DD-myc-F1-IR/AA (Toxoplasma gondii); assay: co-IP; two sequential anti-myc immunoprecipitations (48 hrs Shld-1); IPs and flow throughs blotted, bands quantified with ImageJ and normalised to the input
[2] = target: DD-myc-F2-R/A (Toxoplasma gondii); assay: as above
[3] = target: the molecule itself; assay: SEC; purified FH2 domains on Superose 6 10/300 GL, 0.4 ml/min, PBS-NaCl 0.15 M buffer, to determine their oligomeric state

Molecule	stoichiometry N [3]	also measured
Toxoplasma gondii Formin 1 (TgFRM1), endogenous (natural protein)	–	percent of the input formin left in the second flow through after two anti-myc IPs (not co-precipitated) [1]: 30%
Toxoplasma gondii Formin 2 (TgFRM2), endogenous (natural protein)	–	percent of the input formin left in the second flow through after two anti-myc IPs (not co-precipitated) [2]: 17%
His-F1L (FH2 domain of TgFRM1 with an N-terminal 48 amino acid proline-rich extension) (domain or fragment, source: E. coli, purified (Ni-NTA under native conditions)) KKPEAPKKEEAKPKPEAKKEAPKKGPPGGKGGKGPPGKGPPKGKGKGPKKKGEGGLKVGKKDEGKTKRFFWDPIFEDEIPGTIFMKKPNMVLKLQDVEETFAKVVAKKKTESKKPKIIQLLPDSKRAYNMSIALSKFNNYSYQQLREAIIDLDPKILTIEATETLLNFVPTGEENQVVKEYINSGGDLKLVDKPEQFVAAMLGVPLMKQRLEAHAFALNFREAYSDAYTPLENMADACDAIDDSQNLKIVLFAILELGNALNEGDPQRGGAAGFKPTTLAKLQEIRTTTKPVRTMLQYICDIIWEQQPTALNIYEDLKICDKAQRVDMQGIEGRISNLKAGLTKVKNTLEAAKKGNESTGVMGDRDPLRNIMDEFLIEAEPKIKQLDDFLVQVQNQFLQTCHYSGYPDKDVKKIKPDELFKQVAGFARQVDAIRKQKQEIADRELKRKEAEAKRAGKGLKSTAVKKVGMK	2	–
His-F2 (FH2 domain of TgFRM2) (domain or fragment, Toxoplasma gondii, UniProt D0V3Y1 3317-4043, looked up, also called F2-WT; His-GST-F2; source: E. coli, purified (Ni-NTA under native conditions)) TGSYPGASDKSQQTFSAGAPSSGTNARTESTPAGAGETGASGEAKAPAAPKKKAMPPPPPPGKTPGDASKAPGGPPGKGKAPPLPKGKKAPQLGKAPKAGGPPKKADAVDPMTLPLRRKIHWKTLGKEQIEGTVFKELEGDPAIPDMFDPEAISRLFSATLTVKSDEAAVKAAPKKAEEKKHTILDNKRAQNVAIVLARLPLSLDAIAQKMLHLDTEGLTVDILQKVEQVAPTPEELVKFREYEELKKTENTGDLRDVEKKMTALIPVTRLSSRVRVMQTALQWEKVVEEIEKQLALLCKAADEAHNSRKFRSLLQAVLQWGNYVNHGVKKAPKGQEVSSESEARKAETTSPTEGDRRENRQTLQQLPPILLVKELPTKGFKLASLEKLMEFRTTVDKSICSLHFIISNLIVSLPELDILDLASDMPSLEAAARLSDESIDAPVSYLRNEAAFLLSQIHAIKQVLAAKDATATDPSGAPRPSGSKPQTDEALHAELTRLQKLHGEMVLTLERLRESYLNCKAVIGEVGRFYGEDGPKKPSAGKHKLKGQAVSVDAGGSATAGGVIAEWEFGLLDQSPFELLFSILSTCRQGLRDVQANPRKYAILLVGRFASEEEKWKLLKFHIDNSLANRKRVTGCRGSDAEQVAGRPQDADKAGSSVVSSPRTTPRGSIASRGGKKLIVGRHGPEAGGTPQIPRGPPKSDNGSFTETQRLGRGLSEGSEDALSSP	2	–
